Data taken from patent US20060084798.

Tested on: MOP7/human ARNT (transfected) (Mus musculus)
Experiment: cell_activity
Conditions: COS-1 luciferase; enhanced by hypoxia or CoCl2

HRE reporter (six HRE enhancer elements)
activity: 11.7 fold
